The values below come from patent publication US20210171647A1 (WUXI BIOLOGICS SHANGHAI, published 2021).

Holding throughout (test): ELISA, antibody coated, OX40-ECD.His mutant supernatant; relative to silent alanine substitutions;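 further: captured OX40 mutant protein detected with HRP-labelled anti-His antibody, absorbance read-out, scaled to the mean signal of control mutants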
On the technique in general: ELISA stands for enzyme-linked immunosorbent assay.

One assay concerns the target T1, human OX40-ECD.His S57A (human, UniProt P43489 29-214).
T1 construct: extracellular domain; not shown: C-terminal His-tag
T1 sequence (looked up): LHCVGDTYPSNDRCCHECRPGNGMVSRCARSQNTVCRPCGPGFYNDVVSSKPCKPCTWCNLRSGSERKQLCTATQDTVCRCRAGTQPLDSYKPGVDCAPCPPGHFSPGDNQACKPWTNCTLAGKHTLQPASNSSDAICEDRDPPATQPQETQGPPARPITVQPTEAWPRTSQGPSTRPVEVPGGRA

The target of the next assay is T2, human OX40-ECD.His P157A (human, UniProt P43489 29-214).
T2 construct: extracellular domain; not shown: C-terminal His-tag
T2 sequence (looked up): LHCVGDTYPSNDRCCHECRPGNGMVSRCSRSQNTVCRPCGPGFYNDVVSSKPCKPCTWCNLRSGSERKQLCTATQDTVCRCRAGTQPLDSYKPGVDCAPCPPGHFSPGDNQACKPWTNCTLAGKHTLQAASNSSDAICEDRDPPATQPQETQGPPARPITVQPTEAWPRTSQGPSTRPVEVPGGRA

The next assay deals with T3, human OX40-ECD.His L89A (human, UniProt P43489 29-214).
T3 construct: extracellular domain; not shown: C-terminal His-tag
T3 sequence (looked up): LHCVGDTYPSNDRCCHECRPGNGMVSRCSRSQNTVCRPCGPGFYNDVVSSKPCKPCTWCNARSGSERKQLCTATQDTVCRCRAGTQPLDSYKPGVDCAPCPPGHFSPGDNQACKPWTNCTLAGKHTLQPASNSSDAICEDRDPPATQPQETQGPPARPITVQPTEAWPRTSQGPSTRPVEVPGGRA

A further assay has as its target T4, human OX40-ECD.His S38A (human, UniProt P43489 29-214).
T4 construct: extracellular domain; not shown: C-terminal His-tag
T4 sequence (looked up): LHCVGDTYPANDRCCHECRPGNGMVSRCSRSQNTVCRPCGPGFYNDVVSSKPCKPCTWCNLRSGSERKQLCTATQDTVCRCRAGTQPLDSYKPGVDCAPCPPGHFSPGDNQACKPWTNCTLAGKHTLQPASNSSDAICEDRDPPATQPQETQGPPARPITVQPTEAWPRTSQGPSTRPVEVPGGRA

The target in another assay is T5, human OX40-ECD.His S78A (human, UniProt P43489 29-214).
T5 construct: extracellular domain; not shown: C-terminal His-tag
T5 sequence (looked up): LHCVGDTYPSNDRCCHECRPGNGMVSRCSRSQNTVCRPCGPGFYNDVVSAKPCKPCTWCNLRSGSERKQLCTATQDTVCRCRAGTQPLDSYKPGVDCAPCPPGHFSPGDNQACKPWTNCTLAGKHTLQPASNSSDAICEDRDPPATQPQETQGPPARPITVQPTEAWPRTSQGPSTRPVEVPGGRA

In the next assay the target is T6, human OX40-ECD.His V32A (human, UniProt P43489 29-214).
T6 construct: extracellular domain; not shown: C-terminal His-tag
T6 sequence (looked up): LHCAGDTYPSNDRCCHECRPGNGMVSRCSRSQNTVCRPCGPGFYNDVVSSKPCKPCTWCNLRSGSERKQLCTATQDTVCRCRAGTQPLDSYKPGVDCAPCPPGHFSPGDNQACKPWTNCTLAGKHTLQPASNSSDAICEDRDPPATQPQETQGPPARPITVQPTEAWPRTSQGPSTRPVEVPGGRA

The target in another assay is T7, human OX40-ECD.His T100A (human, UniProt P43489 29-214).
T7 construct: extracellular domain; not shown: C-terminal His-tag
T7 sequence (looked up): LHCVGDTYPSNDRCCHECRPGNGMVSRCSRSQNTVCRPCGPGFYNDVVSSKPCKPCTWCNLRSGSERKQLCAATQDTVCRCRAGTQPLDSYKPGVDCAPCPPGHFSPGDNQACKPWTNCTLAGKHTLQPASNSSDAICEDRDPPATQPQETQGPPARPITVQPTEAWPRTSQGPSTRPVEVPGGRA

Another assay addresses T8, human OX40-ECD.His I165A (human, UniProt P43489 29-214).
T8 construct: extracellular domain; not shown: C-terminal His-tag
T8 sequence (looked up): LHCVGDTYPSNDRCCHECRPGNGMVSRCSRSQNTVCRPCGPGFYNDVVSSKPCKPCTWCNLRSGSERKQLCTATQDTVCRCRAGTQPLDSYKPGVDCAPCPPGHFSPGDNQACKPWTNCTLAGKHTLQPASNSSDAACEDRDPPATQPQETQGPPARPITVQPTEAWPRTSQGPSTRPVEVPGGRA

The next assay has as its target T9, human OX40-ECD.His A101G (human, UniProt P43489 29-214).
T9 construct: extracellular domain; not shown: C-terminal His-tag
T9 sequence (looked up): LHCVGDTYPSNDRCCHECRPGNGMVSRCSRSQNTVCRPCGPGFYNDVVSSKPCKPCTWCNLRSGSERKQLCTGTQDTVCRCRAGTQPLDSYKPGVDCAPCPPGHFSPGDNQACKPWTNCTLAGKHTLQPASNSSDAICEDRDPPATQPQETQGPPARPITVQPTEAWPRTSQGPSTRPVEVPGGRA

Another assay addresses T10, human OX40-ECD.His A126G (human, UniProt P43489 29-214).
T10 construct: extracellular domain; not shown: C-terminal His-tag
T10 sequence (looked up): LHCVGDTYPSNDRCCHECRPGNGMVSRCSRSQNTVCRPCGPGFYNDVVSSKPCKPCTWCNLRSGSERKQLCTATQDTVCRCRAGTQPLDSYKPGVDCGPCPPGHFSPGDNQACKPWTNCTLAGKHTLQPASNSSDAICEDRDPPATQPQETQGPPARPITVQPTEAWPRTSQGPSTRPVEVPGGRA

Method for human OX40-ECD.His A101G: (§1) After interacting with the supernatant that contains quantified OX40 mutants or human OX40-ECD.His protein, HRP conjugated anti-His antibody (1:5000, GenScript-A00612, CHN) was added as detection antibody. Absorbance was normalized according to the average of control mutants.
Method for human OX40-ECD.His A126G: as §1
Method for human OX40-ECD.His I165A: as §1
Method for human OX40-ECD.His L89A: as §1
Method for human OX40-ECD.His P157A: as §1
Method for human OX40-ECD.His S38A: as §1
Method for human OX40-ECD.His S57A: as §1
Method for human OX40-ECD.His S78A: as §1
Method for human OX40-ECD.His T100A: as §1
Method for human OX40-ECD.His V32A: as §1

B1: 1.134.9-u1-IgG1L (antibody, V domains shown)
VH: QVQLQESGPGLVKPSGTLSLTCAVSGGSISSYNWWSWVRQPPGKGLEWIGEIYHGGNTNYNPSLKSRVTMSVDNSKNQFSLKLSSVTAADTAVYYCARAPGDWGGSPYFDFWGQGTLVTVSS
VL: SSELTQDPAVSVALGQTVRITCQGDNLRTYYASWYQQKPGQAPILLIYGRNKRPSGIPDRFSGSSSGNTASLTITGAQAEDEAAYYCNSRDSSGNPVVFGGGTKLTVL
notes: fully human IgG1, lambda
On to B1, for which the “Fold Change” value with human OX40-ECD.His S57A is 0.963; in the assay with human OX40-ECD.His P157A, 0.992; with human OX40-ECD.His L89A, 0.992; in the assay with human OX40-ECD.His S38A, 0.997; with human OX40-ECD.His S78A, 1; with human OX40-ECD.His V32A, 1.01. The “Fold Change” value with human OX40-ECD.His T100A came out at 0.557; in the assay with human OX40-ECD.His I165A, 0.871; in the assay with human OX40-ECD.His A101G, 0.881; with human OX40-ECD.His A126G, 0.954.
